B1: 13A4 (VHH)
VHH: EVQLVESGGGLVQAGGSLRLSCVASKMTFMRYTMGWYRQAPGKQRDLVASIDSSGGTNYADSVKGRFTISRDNAKNTVYLEMNSLKPEDTGVYYCNGRWDIVGAIWWGQGTQVTVSS
notes: C-term myc-His6 tag
B2: 27H4 (VHH)
VHH: B1 VHH with S53A
notes: C-term myc-His6 tag
B3: 17C3 (VHH)
VHH: EVQLVESGGGLVQAGGSLRLSCAANGLTFRRYDMGWYRQAPGQQREWVAAISGAGDINYADSVKGRFTMARDNANHTVHLQMNSLKPEDTAVYYCNANWKMLLGVENDYWGQGTQVTVSS
notes: C-term myc-His6 tag
B4: 14A1 (VHH)
VHH: EVQLVESGGGSVQAGGSLRLSCAASERTFSSYGMGWFRQAPGKEREFVATINWSGVTAYADSVKGRFTISRDNAKKTVYLQMNSLKPEDTAVYYCAAEPYGSGSSLMSEYDYWGHGTQVTVSS
notes: C-term myc-His6 tag
B5: 14B4 (VHH)
VHH: B4 VHH with S11L, A24V, E26S, T28A, E44D, V63I, K76E, A91G, P99T, H115Q
notes: C-term myc-His6 tag
B6: 14A12 (VHH)
VHH: B4 VHH with E6K, S11L, M107I
notes: C-term myc-His6 tag
B7: 14A4 (VHH)
VHH: B4 VHH with G16S, R19T, A23V, R27G, E46A, T57N, V78A, P99T, S108N, H115Q
notes: C-term myc-His6 tag
B8: 14A2 (VHH)
VHH: B4 VHH with S11L, M107I
notes: C-term myc-His6 tag
B9: 14B10 (VHH)
VHH: B4 VHH with S11L, A24V, S25N, E26S, V63I, K76E, E88D, A91G, P99T, H115Q
notes: C-term myc-His6 tag
B10: 14C6 (VHH)
VHH: B4 VHH with A23V, R27G, E46A, A97T, E98D, P99T, S108N, H115Q
notes: C-term myc-His6 tag
B11: 14C11 (VHH)
VHH: EVQLVESGGGLVQAGGSLRLSCAVNSRTFSSYGMGWFRQAPGKEREFVATINWSGATAYADSIKGRFTISRDNAKETVYLQMNSLKPDDTGVYYCAAETYGSGSSLMSEYDYWGQGTQVTVSS
notes: C-term myc-His6 tag
B12: 14B3 (VHH)
VHH: EVQLVESGGGLVQPGGSLTLSCVASEGTFSSYGMGWFRQAPGKERAFVATINWSGVNAYADSVKGRFTISRDNAKKTAYLQMNSLKPEDTAVYYCAAETYGSGSSLMNEYDYWGQGTQVTVSS
notes: C-term myc-His6 tag
B13: 14B11 (VHH)
VHH: B4 VHH with S11L, E26G, R27S, A40V, V92R, A96G, A97V, P99T, S108T, H115Q
notes: C-term myc-His6 tag
B14: 14C1 (VHH)
VHH: B4 VHH with E26G, R27S, E46A, A97T, P99T, S108N, H115Q
notes: C-term myc-His6 tag
B15: 46D3 (VHH)
VHH: KVQLVESGGGLVQAGGSLRLSCAASGRTFTEYSMGWFRQAPGKEREFVATISWNYGYTYYSDSVKGRFTVSRDIAENTVYLQMNTLKSEDTAVYYCAAKIGWLSIRGDEYEYWGQGTQVTVSS
notes: C-term myc-His6 tag

Where a chain is given by its changes, count along the chain named.

For the assay, the target named is T1, recombinant human ErbB2/Fc chimera (human, UniProt P04626 23-652).
T1 construct: bought from R&D Systems; also called rhErbB2-Fc; rhErb2-Fc; Fc part of the bought chimera not given; not described
The experiment in a line: ELISA, coated ErbB2/Fc. In general terms: ELISA stands for enzyme-linked immunosorbent assay.
Regarding B1, the binding result is “binds”. The result for B2 reads “binds”; that for B3, “binds”. B4: the binding result was “binds”.

Take B5: the binding result is listed as “binds”. The result for B6 reads “binds”. The result for B7 reads “binds”. The result for B8 reads “binds”; that for B9, “binds”. On to B10, for which the binding result is “binds”. For the molecule B11, the binding result is given as “binds”. Turning to B12, the binding result is given as “binds”. The result for B13 reads “binds”; that for B14, “binds”. The value for B15 was “binds”.

These data come from US20150232562A1 (Ablynx, published 2015).
